T1: monkey Axl receptor on COS7 cells (African green monkey, UniProt A0A0D9S0W1 26-894)
T1 construct: also called monkey cellular form of the Axl receptor
T1 sequence: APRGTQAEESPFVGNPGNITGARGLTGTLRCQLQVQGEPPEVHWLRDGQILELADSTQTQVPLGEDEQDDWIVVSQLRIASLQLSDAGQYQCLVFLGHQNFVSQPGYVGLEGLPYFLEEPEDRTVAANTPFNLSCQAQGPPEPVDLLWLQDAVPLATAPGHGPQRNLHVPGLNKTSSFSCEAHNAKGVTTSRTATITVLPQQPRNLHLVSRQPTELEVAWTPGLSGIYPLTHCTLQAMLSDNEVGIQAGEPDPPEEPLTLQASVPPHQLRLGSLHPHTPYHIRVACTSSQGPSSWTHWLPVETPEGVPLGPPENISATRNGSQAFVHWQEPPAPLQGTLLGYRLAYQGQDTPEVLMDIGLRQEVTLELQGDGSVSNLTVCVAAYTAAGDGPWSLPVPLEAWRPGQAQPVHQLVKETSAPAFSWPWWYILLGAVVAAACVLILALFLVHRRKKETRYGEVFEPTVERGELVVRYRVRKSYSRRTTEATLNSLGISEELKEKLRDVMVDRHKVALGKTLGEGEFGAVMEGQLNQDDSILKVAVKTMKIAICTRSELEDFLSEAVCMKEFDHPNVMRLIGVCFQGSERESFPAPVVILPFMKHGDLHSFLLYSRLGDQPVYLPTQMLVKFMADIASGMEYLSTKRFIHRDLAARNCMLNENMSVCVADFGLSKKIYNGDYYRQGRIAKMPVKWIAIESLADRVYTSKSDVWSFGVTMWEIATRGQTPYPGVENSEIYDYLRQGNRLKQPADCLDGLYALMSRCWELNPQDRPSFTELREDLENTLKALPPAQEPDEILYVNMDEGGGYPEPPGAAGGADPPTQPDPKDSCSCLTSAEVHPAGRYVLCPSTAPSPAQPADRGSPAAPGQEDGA

T2: recombinant human Axl-Fc protein (R and D Systems, cat N° 154-AL) (human, UniProt P30530 26-451)
T2 construct: Bought construct; An anti-Histidine coating control hints at a His tag, not described; also called rhAxl-Fc; rh Axl-Fc; not shown: human Fc portion of the bought fusion
T2 sequence: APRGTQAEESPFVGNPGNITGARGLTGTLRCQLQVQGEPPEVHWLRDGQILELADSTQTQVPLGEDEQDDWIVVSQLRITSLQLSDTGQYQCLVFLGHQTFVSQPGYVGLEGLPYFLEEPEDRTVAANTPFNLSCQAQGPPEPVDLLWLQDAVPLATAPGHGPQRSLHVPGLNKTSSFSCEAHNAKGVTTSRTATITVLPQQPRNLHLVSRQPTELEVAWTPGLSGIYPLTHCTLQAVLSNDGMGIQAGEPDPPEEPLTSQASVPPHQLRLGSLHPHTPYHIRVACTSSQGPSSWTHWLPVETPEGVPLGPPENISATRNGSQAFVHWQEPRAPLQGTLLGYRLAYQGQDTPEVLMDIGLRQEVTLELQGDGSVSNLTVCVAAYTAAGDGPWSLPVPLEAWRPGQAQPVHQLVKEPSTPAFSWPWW


Assays:
[1] = target: T1, monkey Axl receptor on COS7 cells; experiment: flow cytometry titration on COS7 cells
Description: For 110D7, respectively 1003A2 and 1024G11, cellular binding purpose, 2·10⁵ cells were incubated with an antibody concentration range prepared by ½ serial dilution (12 points) of a 10 μg/ml (6.66 10⁻⁸ M) antibody solution of 110D7, respectively 1003A2 and 1024G11, or m9G4 (mIgG1 isotype control Mab) for 20 min at 4° C. After 3 washes in phosphate-buffered saline (PBS) supplemented with 1% BSA and 0.01% NaN₃, cells were incubated with secondary antibody goat anti-mouse Alexa 488 (dilution 1/500) for 20 minutes at 4° C. After 3 additional washes in PBS supplemented with 1% BSA and 0.1% NaN₃, cells were analyzed by FACS (Facscalibur, Becton-Dickinson). At least 5000 cells were assessed to calculate the mean value of fluorescence intensity. Data are analyzed using Prism software.

[2] = target: T2, recombinant human Axl-Fc protein (R and …); experiment: competition ELISA, rhAxl-Fc on coated rhGas6 (competitor: Gas6)
Description: To further characterize the anti-Axl Mabs, Gas6 competition assays were performed. In this assay, the free rhAxl-Fc protein and the anti-Axl antibody are incubated to form antigen-antibody complex and then the complexes are loaded on Gas6-coated surface in the assay plate. The unbound antibody-antigen complexes are washed off before adding enzyme-linked secondary antibody against the human Fc portion of the rhAxl-Fc protein. The substrate is then added and the antigen concentration can then be determined by the signal strength elicited by the enzyme-substrate reaction.
Briefly reaction mixture comprising the rhAxl-Fc protein in presence or not of the Mabs to be tested, are prepared on a separate saturated (0.5% gelatin in PBS 1×) plate. Serial 1: 2 dilutions (starting from 80 μg/ml on 12 columns) of murine Axl antibodies (110D7, 1003A2 and 1024G11) are performed. Then 0.5 μg/ml of the rhAxl-Fc protein is added (R and D Systems, ref 154AL/CF), except to the negative control line that contains only ELISA diluant (0.1% gelatin, 0.05% Tween 20 in PBS 1×). After homogenisation, the competition samples are loaded on Gas6-coated plates with a 6 μg/ml rhGas6 solution in PBS (R and D Systems cat N° 885-GS-CS/CF). After incubation and several washes, bound rhAxl-Fc proteins are detected using a goat anti-Human IgG-HRP (Jackson, ref 109-035-098). Once bound, the TMB substrate is added to the plates. The reaction is stopped by addition of H₂SO₄ acid solution and the obtained optical densities read at 450 nm using a microplate reader instrument.

Binder | antibody concentration above which the plateau is reached [1] | antibody concentration above which competition with Gas6 binding occurs [2]
110D7 anti-Axl monoclonal antibody (antibody, V domains shown, Murine monoclonal antibody purified from a hybridoma; a mIgG1 isotype control (9G4) is used beside it; also called m110D7; monoclonal antibody 110D7 derived from the hybridoma I-3959) VH: EVKLVESGGGLVQPGGSLKLSCATSGFTFSDYYMYWVRQTPEKRLEWVAYISNGGGSTYYPDTVKGRFTMSRDNAKNTLYLQMSRLKSEDTAMYYCARLSFYAMDYWGQGTSVTVSS VL: DIVMTQSHKFMSTSVGDRVSITCKASQDVTTAVAWYQQKPGQSPKLLIYWASTRHTGVPDRFTGSGSGTDYTLTISSVQAEDLALYYCQQHYRIPFTFGSGTKLEIK | > 1000 pM | > 16.7 nM
1003A2 anti-Axl monoclonal antibody (antibody, V domains shown, Murine monoclonal antibody purified from a hybridoma; a mIgG1 isotype control (9G4) is used beside it; also called monoclonal antibody 1003A2 derived from the hybridoma I-4499) VH: EVKLVESGGGLVQPGGSLKLSCAASGFTFNSYSMSWVRQTPEKRLEWVAYISNGGGRTYYPDTIKGRFTLSRDNDRNTLYLQMSSLKSEDTAMYYCARGTTESYYALDYWGQGTSVTVSS VL: DIVMTQSHKFMSTSLGDRISITCKASQDVITAVAWYQQKPGQSPKLLIYWASTRHTGVPDRFTGSGSGTDYNLTISSVQAEDLALYYCQQHFSTPLTFGAGTKLELK | > 520 pM | > 16.7 nM
1024G11 anti-Axl monoclonal antibody (antibody, V domains shown, Murine monoclonal antibody purified from a hybridoma; a mIgG1 isotype control (9G4) is used beside it; also called monoclonal antibody 1024G11 derived from the hybridoma I-4501) VH: EVKLVESGGGLVQPGGSLNLSCAASGFTFSSYSMSWVRQTPEKRLEWVAFISNGGGRTYYPDTVKGRFTFSRDNARNTLYLQMSSLNSEDTAMYFCARGTTESYYAMDYWGQGTSVTVSS VL: DIVMTQSHKFMSTSVGDRVSITCKASQDVITAVAWYQQKPGQSPKLLIYWASTRHTGVPDRFTGSGSGTDYTLTISSVQAEDLALYFCQQHLSTPLTFGAGTKLELK | > 520 pM | > 16.7 nM

Source: US20160046725A1 (PIERRE FABRE MEDICAMENT, published 2016)
